In article PMC12507022, “Widespread distribution of BpfA-mediated bisphenol F degradation among members of the Pseudomonadota and Actinomycetota” (The ISME Journal, 2025):

What was measured:
Test in all cases: HPLC, Michaelis-Menten fit
Details in all cases: 20 mM Tris-HCl pH 8.0, 30 °C, O2 as electron acceptor
[1] = substrate: Oc1ccc(Cc2ccc(O)cc2)cc1; assay type: biochemical, Rhodococcus jostii
[2] = substrate: COCc1ccc(O)cc1; assay type: biochemical, Rhodococcus jostii
[3] = substrate: COc1cc(CO)ccc1O; assay type: biochemical, Rhodococcus jostii
[4] = substrate: CCCc1ccc(O)c(OC)c1; assay type: biochemical, Rhodococcus jostii
[5] = substrate: Oc1ccc(Cc2ccc(O)cc2)cc1; assay type: biochemical, Penicillium simplicissimum
[6] = substrate: COCc1ccc(O)cc1; assay type: biochemical, Penicillium simplicissimum
[7] = substrate: COc1cc(CO)ccc1O; assay type: biochemical, Penicillium simplicissimum
[8] = substrate: CCCc1ccc(O)c(OC)c1; assay type: biochemical, Penicillium simplicissimum

B1: EUGO (Rhodococcus jostii RHA1) (protein)
chain: MTRTLPPGVSDERFDAALQRFRDVVGDKWVLSTADELEAFRDPYPVGAAEANLPSAVVSPESTEQVQDIVRIANEYGIPLSPVSTGKNNGYGGAAPRLSGSVIVKTGERMNRILEVNEKYGYALLEPGVTYFDLYEYLQSHDSGLMLDCPDLGWGSVVGNTLDRGVGYTPYGDHFMWQTGLEVVLPQGEVMRTGMGALPGSDAWQLFPYGFGPFPDGMFTQSNLGIVTKMGIALMQRPPASQSFLITFDKEEDLEQIVDIMLPLRINMAPLQNVPVLRNIFMDAAAVSKRTEWFDGDGPMPAEAIERMKKDLDLGFWNFYGTLYGPPPLIEMYYGMIKEAFGKIPGARFFTHEERDDRGGHVLQDRHKINNGIPSLDELQLLDWVPNGGHIGFSPVSAPDGREAMKQFEMVRNRANEYNKDYAAQFIIGLREMHHVCLFIYDTAIPEAREEILQMTKVLVREAAEAGYGEYRTHNALMDDVMATFNWGDGALLKFHEKIKDALDPNGIIAPGKSGIWSQRFRGQNL
notes: synthetic gene, expressed and purified like BpfA (E. coli, Ni-NTA); contains flavin
Question: B1 was tested. Which Km [1] did it give?
Answer: 185.1 ± 11.3 µM

Question: What about the kcat [1] of the same protein?
Answer: 0.04 ± 0.003 s⁻¹

Question: What about the kcat/Km [1] of the same protein?
Answer: 0.2 b

Question: And the Km [2]?
Answer: 73.2 ± 1.5 µM

Question: What about the kcat [2] of the same protein?
Answer: 4.1 ± 0.01 s⁻¹

Question: And the kcat/Km [2]?
Answer: 56.0 a

Question: What about the Km [3] of the same protein?
Answer: 89.6 ± 11.3 µM

Question: And the kcat [3]?
Answer: 5.9 ± 0.3 s⁻¹

Question: What about the kcat/Km [3] of the same protein?
Answer: 65.8 a

Question: And the Km [4]?
Answer: 59.3 ± 0.7 µM

Question: What about the kcat [4] of the same protein?
Answer: 4.8 ± 0.002 s⁻¹

Question: What about the kcat/Km [4] of the same protein?
Answer: 80.9 b

B2: VAO (Penicillium simplicissimum) (protein)
chain: MSKTQEFRPLTLPPKLSLSDFNEFIQDIIRIVGSENVEVISSKDQIVDGSYMKPTHTHDPHHVMDQDYFLASAIVAPRNVADVQSIVGLANKFSFPLWPISIGRNSGYGGAAPRVSGSVVLDMGKNMNRVLEVNVEGAYCVVEPGVTYHDLHNYLEANNLRDKLWLDVPDLGGGSVLGNAVERGVGYTPYGDHWMMHSGMEVVLANGELLRTGMGALPDPKRPETMGLKPEDQPWSKIAHLFPYGFGPYIDGLFSQSNMGIVTKIGIWLMPNPRGYQSYLITLPKDGDLKQAVDIIRPLRLGMALQNVPTIRHILLDAAVLGDKRSYSSRTEPLSDEELDKIAKQLNLGRWNFYGALYGPEPIRRVLWETIKDAFSAIPGVKFYFPEDTPENSVLRVRDKTMQGIPTYDELKWIDWLPNGAHLFFSPIAKVSGEDAMMQYAVTKKRCQEAGLDFIGTFTVGMREMHHIVCIVFNKKDLIQKRKVQWLMRTLIDDCAANGWGEYRTHLAFMDQIMETYNWNNSSFLRFNEVLKNAVDPNGIIAPGKSGVWPSQYSHVTWKL
notes: as for B1
Question: What does the source list for B2?
Answer: Km [5]: 205.6 ± 18.5 µM; kcat [5]: 0.05 ± 0.001 s⁻¹; kcat/Km [5]: 0.2 b; Km [6]: 72.0 ± 7.1 µM; kcat [6]: 3.9 ± 0.009 s⁻¹; kcat/Km [6]: 54.2 a; Km [7]: 140 ± 12.3 µM; kcat [7]: 6.0 ± 0.2 s⁻¹; kcat/Km [7]: 42.9 b; Km [8]: 71.4 ± 11.6 µM; kcat [8]: 5 ± 0.02 s⁻¹; kcat/Km [8]: 70.4 b
